Here are results for 1 substance from patent US20040143098.

In this data set the test system is DBF1 (Zea mays). The data set can be described thus: cell_activity. The note with it: maize callus, GUS reporter; nearly 3-fold with ABA.
Sequence of DBF1 (Zea mays) (chain, as listed by the source): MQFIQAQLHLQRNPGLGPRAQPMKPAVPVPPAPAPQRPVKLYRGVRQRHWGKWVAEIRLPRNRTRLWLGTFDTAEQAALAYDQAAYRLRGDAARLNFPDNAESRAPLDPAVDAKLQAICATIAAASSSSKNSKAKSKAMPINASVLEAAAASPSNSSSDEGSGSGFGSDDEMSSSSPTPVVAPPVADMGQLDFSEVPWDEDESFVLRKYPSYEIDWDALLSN

rab17 promoter -350/+30 came in with an activity of 2 fold.
